Laboratory results as given in paper PMC3633241 (The Febs Journal, 2013).

Target: the molecule itself
Experiment: SDS/PAGE with western blotting

B1: Pho89–Myc-His6 (full-length recombinant Saccharomyces cerevisiae high-affinity phosphate transporter Pho89 fusion protein) (natural protein, S. cerevisiae, UniProt P38361 1-574, looked up)
chain: MALHQFDYIFAIAMLFAFLDAFNIGANDVANSFASSISSRSLKYWQAMVLAGLCEFLGAVLAGARVSGTIKNNIIDSSIFTNDPAVLMLTMTSALIGSSCWLTFATAIGMPVSTTHSIVGGTIGAGIAAGGANGVVWGWSGVSQIIASWFIAPILAGAIAAIVFSISRFSVLEVKSLERSIKNALLLVGVLVFATFSILTMLIVWKGSPNLHLDDLSETETAVSIVLTGAIASIVYFIFFYPFYRRKVLDQDWTLKLIDIFRGPSFYFKSTDDIPPMPEGHQLTIDYYEGRRNLGTTVSVEDEENKAASNSNDSVKNKEDIQEVDLVRTETEPETKLSTKQYWWSLLKQGPKKWPLLFWLVISHGWTQDVIHAQVNDRDMLSGDLKGMYERSKFYDNRVEYIYSVLQAITAATMSFAHGANDVANATGPLSAVYVIWKTNTIGAKSEVPVWVLAYGGVALVIGCWTYGYNIIKNLGNKMILQSPSRGFSIELAVAITTVMATQLGIPTSTTQIAVGGIVAVGLCNKDLKSVNWRMVAWCYSGWFLTLPIAGLIAGIINGIILNAPRFGVEYQMT
binding result: binds
